Reference: patent US20060058230A1 (published 2006)
Non-standard residues stand in square brackets, D forms with d. No end group written: not given here. 2Nal = N[C@@H](Cc1ccc2ccccc2c1)C(=O)O; 2Thi = N[C@@H](Cc1cccs1)C(=O)O; β3hL = CC(C)C[C@H](N)CC(=O)O; Nle = CCCC[C@H](N)C(=O)O; βAla = NCCC(=O)O

T1: recombinant hPTH1-receptor (human, UniProt Q03431 27-593)
T1 sequence (looked up): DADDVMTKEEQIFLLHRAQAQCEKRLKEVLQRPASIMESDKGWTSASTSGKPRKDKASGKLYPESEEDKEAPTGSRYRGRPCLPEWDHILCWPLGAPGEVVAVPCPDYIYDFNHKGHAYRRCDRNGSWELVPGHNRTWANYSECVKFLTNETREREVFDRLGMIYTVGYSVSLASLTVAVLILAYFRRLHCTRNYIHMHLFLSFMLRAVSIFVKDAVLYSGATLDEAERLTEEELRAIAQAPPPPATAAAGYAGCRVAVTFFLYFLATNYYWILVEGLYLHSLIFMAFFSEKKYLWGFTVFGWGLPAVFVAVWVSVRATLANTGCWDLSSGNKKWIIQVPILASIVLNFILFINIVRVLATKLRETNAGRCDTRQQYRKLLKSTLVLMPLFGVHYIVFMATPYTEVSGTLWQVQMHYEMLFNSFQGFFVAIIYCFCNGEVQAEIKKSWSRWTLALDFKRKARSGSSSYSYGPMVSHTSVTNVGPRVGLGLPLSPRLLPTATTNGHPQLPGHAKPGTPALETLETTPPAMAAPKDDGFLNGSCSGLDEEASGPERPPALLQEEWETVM

T2: PTH receptor on SaOS-2/B10 cells (UniProt Q03431 27-593)
T2 sequence (looked up): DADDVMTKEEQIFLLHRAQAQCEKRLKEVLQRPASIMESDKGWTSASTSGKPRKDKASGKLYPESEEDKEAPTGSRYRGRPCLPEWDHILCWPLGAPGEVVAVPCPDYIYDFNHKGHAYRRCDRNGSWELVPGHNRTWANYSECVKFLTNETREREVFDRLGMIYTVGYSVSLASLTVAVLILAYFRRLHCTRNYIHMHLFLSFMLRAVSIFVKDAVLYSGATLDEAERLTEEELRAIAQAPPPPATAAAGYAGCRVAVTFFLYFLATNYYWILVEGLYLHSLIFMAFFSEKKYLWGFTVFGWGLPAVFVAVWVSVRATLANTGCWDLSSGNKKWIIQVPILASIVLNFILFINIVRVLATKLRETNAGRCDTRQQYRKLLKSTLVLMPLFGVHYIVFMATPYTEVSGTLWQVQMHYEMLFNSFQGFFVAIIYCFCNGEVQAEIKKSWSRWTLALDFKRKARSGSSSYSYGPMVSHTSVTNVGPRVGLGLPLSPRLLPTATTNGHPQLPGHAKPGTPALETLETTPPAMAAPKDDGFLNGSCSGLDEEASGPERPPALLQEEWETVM


What was measured:
[1] = target: T1, recombinant hPTH1-receptor; assay: cell-based or functional assay
[2] = target: T1, recombinant hPTH1-receptor; assay: competition with 125I-[Nle8,18,Nal23,Tyr34]bPTH(1-34)NH2 on HEK293/C21 cells with hPTH1-receptor
Protocol: Human embryonic kidney (HEK293) cells, stably transfected with recombinant hPTH1-receptor (HEK293/C21 cell line, ˜400,000 receptors/cell) (Pines, M., Adams, A. E., Stueckle, S., Bessalle, R., Rashti-Behar, V., Chorev, M., Rosenblatt, M., and Suva, L. J. Endocrinology 1994, 135, 1713-1716), were maintained in D-MEM medium supplemented with 10% fetal bovine serum and […] glutamine at 37° C. in a humidified atmosphere of 95% air/5% CO₂. The medium was changed every 3-4 days, and the cells were subcultured every week. Ligand stimulated adenylyl cyclase activity and radioreceptor competition binding assays were performed on confluent cultures, 1-3 days after a change of medium.
[Nle^{8,18},Nal²³,Tyr³⁴]bPTH(1-34)-NH₂ was radioiodinated and the crude material was purified as previously described (Roubini, E., Duong, L. T., Gibbons, S. W., Leu, C. T., Caulfield, M. P., Chorev, M., and Rosenblatt, M. Biochemistry 1992, 31, 4026-4033). Briefly, 67 μg of peptide in 50 μL phosphate buffer, pH 7.4, in a borosilicate tube, coated with 10 μg Iodogen® (Pierce Chemical), were treated at room temperature with 2 mCi [¹²⁵I]Na for 12 min, followed by dilution with 200 μL of 0.1% TFA in water.
Cells were plated in 24-well tissue culture dishes (Corning Glass Works, Corning, N.Y.) and grown to subconfluency. […] After incubation, cells were washed twice with PBS and lysed with 0.1 M NaOH. Radioactivity in the lysate was measured in a γ-counter (Analytic GammaTrac™ 1193).

[3] = target: T2, PTH receptor on SaOS-2/B10 cells; assay: cell-based or functional assay
[4] = target: T2, PTH receptor on SaOS-2/B10 cells; assay: competition with mono-125I-[Nle8,18,Tyr34]bPTH(1-34)NH2 on SaOS-2/B10 cells
Protocol: SaOS-2/B10 cells were maintained for four days after they had reached confluence. The medium was replaced with 5% FBS […] medium and incubated for 2 hrs at room temperature with 10×10⁴ cpm mono-¹²⁵I-[Nle^{8,18},Tyr³⁴(3-¹²⁵I)]bPTH(1-34)NH₂ in the presence or absence of a competing tested polypeptide of the invention. The cells were washed four times with ice-cold PBS and lysed with 0.1M NaOH, and the radioactivity associated with the cells was counted in a scintillation counter. Synthesis of the radiolabelled [Nle^{8,18},Tyr³⁴(3-¹²⁵I)]bPTH(1-34)NH₂ was carried out as described in Goldman M. E., et al., Endocrinology, (1988), 123, 1468-1475.
The binding assay was conducted on the polypeptides of the invention having SEQ ID NO:5, 6, 7, 9, 10, 11, and 12.

| Molecule | EC50 (half maximal stimulation of adenylate cyclase) [1] [nM] | IC50 [2] [nM] | EC50 (half maximal stimulation of adenylate cyclase) [3] [nM] | IC50 [4] [nM] |
| --- | --- | --- | --- | --- |
| AVSEIQF[Nle]HNLGKHLSS[β3hL][βAla]RVE[2Nal]LRKKLQDVHNY-NH2 (N-terminus assumed; SMILES CCCC[C@H](NC(=O)[C@H](Cc1ccccc1)NC(=O)[C@H](CCC(N)=O)NC(=O)[C@@H](NC(=O)[C@H](CCC(=O)O)NC(=O)[C@H](CO)NC(=O)[C@@H](NC(=O)[C@H](C)N)C(C)C)[C@@H](C)CC)C(=O)N[C@@H](Cc1c[nH]cn1)C(=O)N[C@@H](CC(N)=O)C(=O)N[C@@H](CC(C)C)C(=O)NCC(=O)N[C@@H](CCCCN)C(=O)N[C@@H](Cc1c[nH]cn1)C(=O)N[C@@H](CC(C)C)C(=O)N[C@@H](CO)C(=O)N[C@@H](CO)C(=O)N[C@H](CC(=O)NCCC(=O)N[C@@H](CCCNC(=N)N)C(=O)N[C@H](C(=O)N[C@@H](CCC(=O)O)C(=O)N[C@@H](Cc1ccc2ccccc2c1)C(=O)N[C@@H](CC(C)C)C(=O)N[C@@H](CCCNC(=N)N)C(=O)N[C@@H](CCCCN)C(=O)N[C@@H](CCCCN)C(=O)N[C@@H](CC(C)C)C(=O)N[C@@H](CCC(N)=O)C(=O)N[C@@H](CC(=O)O)C(=O)N[C@H](C(=O)N[C@@H](Cc1c[nH]cn1)C(=O)N[C@@H](CC(N)=O)C(=O)N[C@@H](Cc1ccc(O)cc1)C(N)=O)C(C)C)C(C)C)CC(C)C, Synthetic analog of bovine PTH(1-34), carboxamide at the C-terminus) [[Nle^8, β-hLeu^18, β-Ala^19, Nal^23, Tyr^34]bPTH(1-34)NH2] | 2.73 | 117 | – | – |
| AVSEHQLLHDKGKSIQDLRRREFLEKLIEKIHTA-NH2 (Synthetic analog of human PTHrP(1-34), carboxamide at the C-terminus) [[Glu^22,25,29, Lys^26,30]hPTHrP(1-34)NH2] | – | – | 0.42 | 5.5 |
| AVSEHQLLHDKGKSIQDLRRRFLLHHLLAELHTA-NH2 (Synthetic analog of human PTHrP(1-34), carboxamide at the C-terminus) [[Leu^23,28,31]hPTHrP(1-34)NH2] | – | – | 0.74 | 18.3 |
| SVSEIQLMHNLGKHLNSMERVELLEKLLEKLHNF-NH2 (Synthetic analog of human PTH(1-34), carboxamide at the C-terminus) [[Glu^25,29, Leu^23,27,31, Lys^30]hPTH(1-34)NH2] | – | – | 24 | 216 |
| SVSEIQLMHNLGKHLNSMERVEWLEKKLEKVHNF-NH2 (Synthetic analog of human PTH(1-34), carboxamide at the C-terminus) [[Glu^25,29, Lys^30]hPTH(1-34)NH2] | – | – | 25.5 | 30 |

Further lines, results first:

| EC50 (half maximal stimulation of adenylate cyclase) [1] [nM] | IC50 [2] [nM] | EC50 (half maximal stimulation of adenylate cyclase) [3] [nM] | IC50 [4] [nM] | Molecule |
| --- | --- | --- | --- | --- |
| 13.8 | – | – | – | [Nle^8, β-Ala^18,19, Nal^23, Tyr^34]bPTH(1-34)NH2 (peptide) |
| – | – | 10 | 90 | AVSEHQLLHDKGKSIQDLRRRELLEKLLEKL[2Thi]TA-NH2 (N-terminus assumed; SMILES CC[C@H](C)[C@H](NC(=O)[C@H](CO)NC(=O)[C@H](CCCCN)NC(=O)CNC(=O)[C@H](CCCCN)NC(=O)[C@H](CC(=O)O)NC(=O)[C@H](Cc1c[nH]cn1)NC(=O)[C@H](CC(C)C)NC(=O)[C@H](CC(C)C)NC(=O)[C@H](CCC(N)=O)NC(=O)[C@H](Cc1c[nH]cn1)NC(=O)[C@H](CCC(=O)O)NC(=O)[C@H](CO)NC(=O)[C@@H](NC(=O)[C@H](C)N)C(C)C)C(=O)N[C@@H](CCC(N)=O)C(=O)N[C@@H](CC(=O)O)C(=O)N[C@@H](CC(C)C)C(=O)N[C@@H](CCCNC(=N)N)C(=O)N[C@@H](CCCNC(=N)N)C(=O)N[C@@H](CCCNC(=N)N)C(=O)N[C@@H](CCC(=O)O)C(=O)N[C@@H](CC(C)C)C(=O)N[C@@H](CC(C)C)C(=O)N[C@@H](CCC(=O)O)C(=O)N[C@@H](CCCCN)C(=O)N[C@@H](CC(C)C)C(=O)N[C@@H](CC(C)C)C(=O)N[C@@H](CCC(=O)O)C(=O)N[C@@H](CCCCN)C(=O)N[C@@H](CC(C)C)C(=O)N[C@@H](Cc1cccs1)C(=O)N[C@H](C(=O)N[C@@H](C)C(N)=O)[C@@H](C)O, Synthetic analog of human PTHrP(1-34), carboxamide at the C-terminus) [[Glu^22,25,29, Leu^23,28,31, Lys^26,30, Thi^32]hPTHrP(1-34)NH2] |
| – | – | 5 | 70 | AVSEHQLLHDKGKSIQDLRRRELLEKLLELLHTA-NH2 (Synthetic analog of human PTHrP(1-34), carboxamide at the C-terminus) [[Glu^22,25,29, Leu^23,28,30,31, Lys^26]hPTHrP(1-34)NH2] |
| 1.51 | 59 | – | – | AVSEIQF[Nle]HNLGKHLSS[Nle][βAla]RVE[2Nal]LRKKLQDVHNY-NH2 (N-terminus assumed; SMILES CCCC[C@H](NC(=O)[C@H](CO)NC(=O)[C@H](CO)NC(=O)[C@H](CC(C)C)NC(=O)[C@H](Cc1c[nH]cn1)NC(=O)[C@H](CCCCN)NC(=O)CNC(=O)[C@H](CC(C)C)NC(=O)[C@H](CC(N)=O)NC(=O)[C@H](Cc1c[nH]cn1)NC(=O)[C@H](CCCC)NC(=O)[C@H](Cc1ccccc1)NC(=O)[C@H](CCC(N)=O)NC(=O)[C@@H](NC(=O)[C@H](CCC(=O)O)NC(=O)[C@H](CO)NC(=O)[C@@H](NC(=O)[C@H](C)N)C(C)C)[C@@H](C)CC)C(=O)NCCC(=O)N[C@@H](CCCNC(=N)N)C(=O)N[C@H](C(=O)N[C@@H](CCC(=O)O)C(=O)N[C@@H](Cc1ccc2ccccc2c1)C(=O)N[C@@H](CC(C)C)C(=O)N[C@@H](CCCNC(=N)N)C(=O)N[C@@H](CCCCN)C(=O)N[C@@H](CCCCN)C(=O)N[C@@H](CC(C)C)C(=O)N[C@@H](CCC(N)=O)C(=O)N[C@@H](CC(=O)O)C(=O)N[C@H](C(=O)N[C@@H](Cc1c[nH]cn1)C(=O)N[C@@H](CC(N)=O)C(=O)N[C@@H](Cc1ccc(O)cc1)C(N)=O)C(C)C)C(C)C, Synthetic analog of bovine PTH(1-34), carboxamide at the C-terminus) [[Nle^8,18, β-Ala^19, Nal^23, Tyr^34]bPTH(1-34)NH2] |
| 9.97 | – | – | – | AVSEIQF[Nle]HNLGKHLS[βAla][β3hL][βAla]RVE[2Nal]LRKKLQDVHNY-NH2 (N-terminus assumed; SMILES CCCC[C@H](NC(=O)[C@H](Cc1ccccc1)NC(=O)[C@H](CCC(N)=O)NC(=O)[C@@H](NC(=O)[C@H](CCC(=O)O)NC(=O)[C@H](CO)NC(=O)[C@@H](NC(=O)[C@H](C)N)C(C)C)[C@@H](C)CC)C(=O)N[C@@H](Cc1c[nH]cn1)C(=O)N[C@@H](CC(N)=O)C(=O)N[C@@H](CC(C)C)C(=O)NCC(=O)N[C@@H](CCCCN)C(=O)N[C@@H](Cc1c[nH]cn1)C(=O)N[C@@H](CC(C)C)C(=O)N[C@@H](CO)C(=O)NCCC(=O)N[C@H](CC(=O)NCCC(=O)N[C@@H](CCCNC(=N)N)C(=O)N[C@H](C(=O)N[C@@H](CCC(=O)O)C(=O)N[C@@H](Cc1ccc2ccccc2c1)C(=O)N[C@@H](CC(C)C)C(=O)N[C@@H](CCCNC(=N)N)C(=O)N[C@@H](CCCCN)C(=O)N[C@@H](CCCCN)C(=O)N[C@@H](CC(C)C)C(=O)N[C@@H](CCC(N)=O)C(=O)N[C@@H](CC(=O)O)C(=O)N[C@H](C(=O)N[C@@H](Cc1c[nH]cn1)C(=O)N[C@@H](CC(N)=O)C(=O)N[C@@H](Cc1ccc(O)cc1)C(N)=O)C(C)C)C(C)C)CC(C)C) [[Nle^8, β-Ala^17,19, β-hLeu^18, Nal^23, Tyr^34]bPTH(1-34)NH2] |
| – | – | 1.12 | 41 | SVSEIQLMHNLGKHLNSMERVELLRKLLQDLHNF-NH2 (Synthetic analog of human PTH(1-34), carboxamide at the C-terminus) [[Leu^23,27,31]hPTH(1-34)NH2] |
